Results published in patent publication US20230416371A1.

Legend:
[1] = target: human FcγRIIa R (allotype R131) extracellular domain (human) (UniProt P12318); assay: SPR Biacore 8K+; KD of G1d divided by KD of this antibody
[2] = target: human FcγRIIa R (allotype R131) extracellular domain (human) (UniProt P12318); assay: SPR Biacore 8K+; KD for FcγRIIb divided by KD for this FcγR
[3] = target: human FcγRIIa R (allotype R131) extracellular domain (human) (UniProt P12318); assay: SPR Biacore 8K+, 25 C, antibody captured, FcγR as analyte, 1:1 Langmuir model

Sequence of human FcγRIIa R (allotype R131) extracellular domain (human) (P12318 34-217 H167R): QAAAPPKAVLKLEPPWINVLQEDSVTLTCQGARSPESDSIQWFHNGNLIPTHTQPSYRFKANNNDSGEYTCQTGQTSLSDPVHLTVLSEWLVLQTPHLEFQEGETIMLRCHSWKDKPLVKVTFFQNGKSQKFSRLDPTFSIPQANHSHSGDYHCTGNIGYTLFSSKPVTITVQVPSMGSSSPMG
Sequence of EGL-GASDALIE (H240-GASDALIE/L73-k0) (antibody) (heavy): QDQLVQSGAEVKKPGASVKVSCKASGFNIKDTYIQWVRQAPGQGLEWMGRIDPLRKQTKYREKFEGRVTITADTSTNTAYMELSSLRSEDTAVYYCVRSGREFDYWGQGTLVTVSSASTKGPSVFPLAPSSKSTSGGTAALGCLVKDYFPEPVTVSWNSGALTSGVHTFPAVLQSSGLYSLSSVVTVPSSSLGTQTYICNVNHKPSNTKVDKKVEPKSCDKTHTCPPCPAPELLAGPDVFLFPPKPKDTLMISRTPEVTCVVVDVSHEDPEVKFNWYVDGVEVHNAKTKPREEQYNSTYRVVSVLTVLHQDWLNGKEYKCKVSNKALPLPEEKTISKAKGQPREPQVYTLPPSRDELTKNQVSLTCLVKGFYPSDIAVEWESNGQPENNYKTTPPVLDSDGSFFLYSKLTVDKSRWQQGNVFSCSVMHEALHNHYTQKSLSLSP
Sequence of EGL-GASDALIE (H240-GASDALIE/L73-k0) (antibody) (light): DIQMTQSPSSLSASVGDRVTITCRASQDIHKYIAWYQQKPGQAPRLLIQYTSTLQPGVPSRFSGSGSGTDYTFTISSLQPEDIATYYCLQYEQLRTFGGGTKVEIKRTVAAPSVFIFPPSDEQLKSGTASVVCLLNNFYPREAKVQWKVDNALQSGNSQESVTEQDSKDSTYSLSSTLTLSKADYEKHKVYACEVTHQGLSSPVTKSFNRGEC
Sequence of EGL-afucosyl (H240-G1d/L73-k_glycomab) (antibody) (heavy): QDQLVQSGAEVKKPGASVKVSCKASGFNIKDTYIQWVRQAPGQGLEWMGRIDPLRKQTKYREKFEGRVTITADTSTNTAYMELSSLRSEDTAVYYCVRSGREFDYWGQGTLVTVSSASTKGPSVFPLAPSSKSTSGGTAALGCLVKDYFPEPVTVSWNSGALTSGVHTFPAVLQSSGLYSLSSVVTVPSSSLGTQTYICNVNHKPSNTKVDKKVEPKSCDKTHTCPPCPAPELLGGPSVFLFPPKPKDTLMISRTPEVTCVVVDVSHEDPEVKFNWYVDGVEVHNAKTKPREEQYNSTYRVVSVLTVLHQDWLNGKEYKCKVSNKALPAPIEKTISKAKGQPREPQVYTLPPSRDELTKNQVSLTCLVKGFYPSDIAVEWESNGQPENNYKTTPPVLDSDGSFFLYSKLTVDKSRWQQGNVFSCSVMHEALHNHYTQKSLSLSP
Sequence of EGL-afucosyl (H240-G1d/L73-k_glycomab) (antibody) (VL): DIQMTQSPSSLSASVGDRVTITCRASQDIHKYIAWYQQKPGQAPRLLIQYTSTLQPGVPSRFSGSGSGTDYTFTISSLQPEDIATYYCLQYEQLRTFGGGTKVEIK

Row | Substance | Relative value to KD between G1d and hFcγRs [1] | A/I ratio (KD for FcγRIIb divided by KD for each FcγR) [2] | Kd [3]
1 | EGL-GASDALIE (H240-GASDALIE/L73-k0) (antibody) | 10.3 times | 16.5 | 161 nM
2 | EGL-afucosyl (H240-G1d/L73-k_glycomab) (antibody) | 1.8 times | 6 | 946 nM
